Assay results taken from patent publication EP4751739A1 (Jiangsu Hengrui Pharmaceuticals Co., Ltd., dated 2025).

Assays:
[1] = target: T1, human c-Met on tumor cell lines (human, UniProt P08581 25-1390); test: cell-based or functional assay
[2] = target: T1, human c-Met on tumor cell lines; test: cell-based or functional assay; remark: listed apart in the source
[3] = target: T2, Cynomolgus monkey c-Met protein (cynomolgus monkey); test: SPR (Biacore 8K), ADC captured on Protein A chip, c-Met protein as analyte, 25 °C, 1:1 Langmuir fit
T2 construct: Soluble analyte in Biacore; also called cyno-c-Met

[4] = target: T2, Cynomolgus monkey c-Met protein; test: SPR (Biacore 8K), antibody captured on Protein A chip, c-Met protein as analyte, 25 °C, 1:1 Langmuir fit

T1 sequence (P08581 25-1390): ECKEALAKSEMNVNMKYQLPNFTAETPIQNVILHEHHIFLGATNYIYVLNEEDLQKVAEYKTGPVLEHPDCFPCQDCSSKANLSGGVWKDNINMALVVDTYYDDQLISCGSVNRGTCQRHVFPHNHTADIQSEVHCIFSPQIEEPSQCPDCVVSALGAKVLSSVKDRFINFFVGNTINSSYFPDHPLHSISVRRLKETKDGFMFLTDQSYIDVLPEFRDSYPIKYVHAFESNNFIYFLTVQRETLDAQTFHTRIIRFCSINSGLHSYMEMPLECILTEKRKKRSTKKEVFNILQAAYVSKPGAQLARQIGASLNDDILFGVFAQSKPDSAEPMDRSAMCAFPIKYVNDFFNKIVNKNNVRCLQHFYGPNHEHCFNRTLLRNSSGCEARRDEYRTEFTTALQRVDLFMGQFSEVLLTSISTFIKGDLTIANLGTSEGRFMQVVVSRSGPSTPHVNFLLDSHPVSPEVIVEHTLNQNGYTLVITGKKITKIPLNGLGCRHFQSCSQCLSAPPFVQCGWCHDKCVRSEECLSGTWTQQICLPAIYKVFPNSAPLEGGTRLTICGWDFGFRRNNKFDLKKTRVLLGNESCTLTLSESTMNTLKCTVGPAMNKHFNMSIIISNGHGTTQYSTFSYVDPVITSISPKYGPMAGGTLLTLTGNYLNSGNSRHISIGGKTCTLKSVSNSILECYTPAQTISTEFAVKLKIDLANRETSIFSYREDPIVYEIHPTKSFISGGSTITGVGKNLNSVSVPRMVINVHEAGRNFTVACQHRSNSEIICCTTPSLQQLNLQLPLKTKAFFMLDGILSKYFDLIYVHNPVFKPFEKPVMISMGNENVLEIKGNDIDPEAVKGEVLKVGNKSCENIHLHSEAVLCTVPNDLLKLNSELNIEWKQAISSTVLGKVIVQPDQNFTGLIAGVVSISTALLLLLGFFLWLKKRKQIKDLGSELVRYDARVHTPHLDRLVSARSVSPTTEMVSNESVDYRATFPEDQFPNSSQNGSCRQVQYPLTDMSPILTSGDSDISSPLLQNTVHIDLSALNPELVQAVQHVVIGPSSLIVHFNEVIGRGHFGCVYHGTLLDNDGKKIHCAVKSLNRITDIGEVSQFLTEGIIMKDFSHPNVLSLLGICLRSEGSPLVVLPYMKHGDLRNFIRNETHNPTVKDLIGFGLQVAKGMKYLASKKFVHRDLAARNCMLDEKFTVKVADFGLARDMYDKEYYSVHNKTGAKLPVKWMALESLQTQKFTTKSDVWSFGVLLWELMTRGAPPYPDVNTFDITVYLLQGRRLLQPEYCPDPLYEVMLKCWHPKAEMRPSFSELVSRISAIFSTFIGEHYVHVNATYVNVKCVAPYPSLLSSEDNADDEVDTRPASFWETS

IC50 for the inhibition of proliferation, EBC-1 cells (c-Met expression High), CellTiter Glo, 6 days [1] [pM]	IC50 for the inhibition of proliferation, HCT116 cells (c-Met expression Low), CellTiter Glo, 6 days [1] [pM]	IC50 for the inhibition of proliferation, Hs 746T cells (c-Met expression High), CellTiter Glo, 6 days [1] [pM]	IC50 for the inhibition of proliferation, MKN-45 cells (c-Met expression High), CellTiter Glo, 6 days [1] [pM]	IC50 for the inhibition of proliferation, NCI-H441 cells (c-Met expression Moderate), CellTiter Glo, 6 days [1] [pM]	IC50 for the inhibition of proliferation, NCI-H1299 cells (c-Met expression Low), CellTiter Glo, 6 days [1] [pM]	IC50 for the inhibition of proliferation, NCI-H1993 cells (c-Met expression High), CellTiter Glo, 6 days [1] [pM]	IC50 for the inhibition of proliferation, NCI-N87 cells (c-Met expression Low), CellTiter Glo, 6 days [1] [pM]	IC50 for the inhibition of proliferation, SW480 cells (c-Met expression Low), CellTiter Glo, 6 days [1] [pM]	Endocytosis ratio% at 0 h, EBC-1 cells, 20 nM, flow cytometry [2] [%]	Endocytosis ratio% at 0.5 h, EBC-1 cells, 20 nM, flow cytometry [2] [%]	Endocytosis ratio% at 2 h, EBC-1 cells, 20 nM, flow cytometry [2] [%]	Endocytosis ratio% at 4 h, EBC-1 cells, 20 nM, flow cytometry [2] [%]	Endocytosis ratio% at 24 h, EBC-1 cells, 20 nM, flow cytometry [2] [%]	Kd [3] [pM]	Kd [4] [pM]	Binder
65	23900	125	55	480	> 200000	181	> 200000	> 200000	0	30.2	61	80.6	98.2	48500		antibody-drug conjugate-1 (ADC-1) (antibody, human IgG2, kappa, V domains shown, compound 9-A may also be coupled to reduced cysteines of this chain; positions not given; compound 9-A (maleimidocaproyl-GGFG linker with exatecan derivative) coupled to cysteines of the TCEP-reduced antibody; positions not given; target DAR n = 5.3, found n = 4.7-5.9 per antibody) VH: QVQLVESGGGVVQPGRSLRLSCAASGFSLSNYGVHWVRQAPGKGLEWLAVIWSGGSTNYAAAFVSRLTISKDNSKNTVYLQMNSLRAEDTAVYYCARNHDNPYNYAMDYWGQGTTVTVSS VL: DIVLTQSPDSLAVSLGERATINCRADKSVSTSTYNYLHWYQQKPGQPPKLLIYLASNLASGVPDRFSGSGSGTDFTLTISSLQAEDVAVYYCQHSRDLPPTFGQGTKLEIKR
51	> 200000	134	176	> 200000	> 200000	203	> 200000	> 200000	0	24.5	62.6	83	98.4		47900	Ab-10 humanized antibody (antibody, human IgG2, kappa, V domains shown, Humanized anti-c-Met antibody; Embodiments name human IgG2 and kappa constant regions; also called naked antibody Ab-10; Ab-10 Naked antibody) VH: QVQLVESGGGVVQPGRSLRLSCAASGFSLSNYGVHWVRQAPGKGLEWLAVIWSGGSTNYAAAFVSRLTISKDNSKNTVYLQMNSLRAEDTAVYYCARNHDNPYNYAMDYWGQGTTVTVSS VL: DIVLTQSPDSLAVSLGERATINCRADKSVSTSTYNYLHWYQQKPGQPPKLLIYLASNLASGVPDRFSGSGSGTDFTLTISSLQAEDVAVYYCQHSRDLPPTFGQGTKLEIKR
